B1: TPR t1 (parent)
chain: GACCAAUCUGCCCUCAGAGCUCGAGAACAUCUUCGGAUGCAGAGGAGGCAGGCUUCGGUGGCGCGAUAGCGCCAACGUCCUCAACCUCCAAUGCAUCCCACCACAUGAUGAUGCCUGAAGAGCCUUGGUUUUUUG

Variants of: B1
Test: polymerase ribozyme fitness, log enrichment relative to wild type (log ratio); higher = more active; in vitro selection for triplet polymerase activity
How it was run: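 Fitness measures genotype enrichment against wild-type enrichment on a logarithmic scale, with inverse-variance-weighted averaging of replicates. The logarithm is base 2, and genotypes were kept only with ≥10 input reads and ≥1 read per output in Illumina sequencing. The sequenced libraries came from one triplicate in vitro selection round, including frozen incubation at −7 °C, of PCR-built, transcribed mutant libraries of each subunit of a heterodimeric triplet polymerase ribozyme.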

Variant | polymerase ribozyme fitness (log ratio)
C8G A18G G19A A27C | -3.93
U9G A27C C62U C70U C98U | -6.21
C3A C20U C101A A105C C114U U131G | -2.47
A37U C82A G120C | 0.889
A18U G48A U59G G113A G135U | -4.36
C13U G17A C62U U78A U81A U112A | -4.61
C11A C49U C85A U106A | -3.44
C98A U112A | -3.24
G10A G71U U87C | -0.267
C13U G60A C114A U130C | -0.229
U55C G69C C79A | -3.59
G63C C88G | -1.3
G61A C88A G120C A121U | 0.393
G44A G93C | -2.23
C49U A119U G122U | -1.11
C15G U32C G36C C49G G120C | -3.15
U21A A43C G63C | -4.13
C13U C62G | -0.959
G48U A95U G117U | -3.3
C11A C53U U129A | -2.66
A68G C94G G122A | -5.12
C40A C56G G60A | -3.73
C13G U14G C15A G71A G122A | -4.63
C40A C88U | -0.447

Variant | polymerase ribozyme fitness (log ratio)
C79U G110A | -0.826
C40A C70U G113A | -2.79
G69U G110C U125C | -1.52
C22G G45A U54A A95C C114U | -5.19
U21C G120U | -0.0201
G44U A46U G71U C114G U132A | -4.18
U7G C12U A37G A43G G61A A91C | -0.427
A46C A100C C115U U129A | -5.33
C3G G71U | -2.64
C11G A37C | -0.179
C3A U7G U32C G93C A111C | -1.66
C28U A43U C89G | -5.07
G110C U131C G135A | -2.51
C80U C88U G127C | -1.46
C28G C53U C56G G77A C88U | -1.92
C73U U96A U116G U130A | -3
G42U C72G G117U | -4.8
G63U G127U | -1.73
C49G A68G G117U | -5.87
A41C G61U | -0.204
U38G G45U G47A C73U | -5.77
G45U A46C | -2.05
G60C A84C C86U | -1.01
G45C C62G G93U | -5.04

Variant | polymerase ribozyme fitness (log ratio)
A43U C115A C124U | -0.864
C4G G10U C20G G69A C114U | -6.96
C88U C97A U109G | -6.35
G36U G71U U87A C104A G113U C115U U130A | -7.12
A100U U132A | -0.727
A50C G71U A121C | 0.855
G52U A111C | -2.18
G48U C73G | -1.73
C12G C22U G63A U87A | -4.98
A5C A46U U106C | -1.72
G69U C85A C101A | -1.66
A95C U125A U126G | -1.74
C22A C73G | -4.45
C12U A16U C22G C99U | -3.39
C20U A37U C56U | -1.39
G19A G51A | -5.49
A66C C72U C80U U126G G128A | -4.37
C3U C13U C15U G48U G113A | -2.97
C13U A105C | -1.68
U7G A37U G47U U67G C70U | -7.04
A5U G36C G48U C85U | -2.32
G10U A18G A37U C40U U112A U126C | -1.57
G61A G93C A95C | -1.24
A43U G58U C62U A74C | -2.24

Variant | polymerase ribozyme fitness (log ratio)
G45U G71C | -2.68
C89G | -1.19
C56A C72U C104A C124U | -0.00796
A37U C40A C94U | -4.04
C56A C72G U78C | -1.29
U54G U59C U130A | -1.81
A43G G69U C89U | -0.177
C4U C73G A118G | -1.58
G17U U78C | -2.6
A43G G44U G48A U78C C124A | 0.343
A18U U129A | -4.3
C15G C73A C82G G117U U130C | -0.6
C53A G57U G93C C97U | -0.989
C8U C72A A100C U132C | -0.83
A83U C85U C123G C124G | 1.28
C13G C73A A90C U92C U126A | -5.92
G47C U55G C72G U106A U129A G135C | -2.99
C20U G57C C104A | -2.45
C89U U133A | -0.271
U7G C12G C13U A46U | -0.346
A5C C73G | -0.545
C12G U78G C102U | -1.99
G69U C72U U87A G113A | -1.35
A29U A37U G44C C72G C114U | -4.21

Variant | polymerase ribozyme fitness (log ratio)
G69C C73A G122A C124G | -0.387
C12G U14A C62A C86A C102A G120C U129A | -7.34
C8G G60U U81A C123A | 1.75
C12A G48U C102A A118G | -4.24
A18U A41U | -2.88
C3U C11U G42C C56A A74C A105U G120C | -6.23
C28U A43C | -4.69
C4U U9C C82U | 0.225
C56U C102A U129G | -3.35
G23A G36C | -6.17
U78G G128A | -1.19
C11A G47A G61U A105U U126A | -5.18
A46G C53G A111G | 1.36
A5C C12U C73A C99U | -4.28
G51U G52A C79A | -5.44
G51C A91C U112A U131C | -6.14
U9G U54A C56A G71A | -2.22
U55G C73A | 0.256
A105U U133A | -1.78
A2U A37G C76G | -3.35
G63U C72A | -4.54
C8U C49U C94G C104U U106A U112C | -1.29
C56A C94A | -1.2
C11U C13U C20G G107A G117U G120U | -3.09

Variant | polymerase ribozyme fitness (log ratio)
G52A C89G U129G | -2.09
C12G U32G | -6.87
G36A G110A | -2.64
G69A C99A | -7.72
U9G C11A U78C | -0.41
G52U G63C U92A | -4.96
A24U G52U U55C C64A C82A C86G C99A G110A A119G | -7.53
A50G C123U | 1.02
U14G A50C G63C C94A | -3.63
G61A U129A | -1.11
A26G G39U G69C C76U A95G G110A | -5.41
A100U U130A | -0.606
A100C C102G | -4.98
G60C U116C | -1.73
C11A A24C G122A C123G | -5.76
A18U G19A G39U C115G | -3
A5C C8A C12U U54A C56U G63U C98G | -7.29
G39U G47A C86U C101A G113U | -4.62
A84G G113U G135A | -4.51
G42U C72G C99A A103C C123U | -6.66
G61C C80A C101A G110A U112G C115U | -8.21
G35A C101G | -5.52
C11A G71C | -2.37
G48U G69A C85G | -3.42

Variant | polymerase ribozyme fitness (log ratio)
C8G U21C C22G G117C C123U C124A | -4.09
G120C G127U | 2.11
A16U U55A U81A A84C U132A | -2.61
C4A A18G G71U C89A A100C G113A C124U | -4.08
C12G G63U A66U G120U G127U | -0.34
A37C G107A C123A | -5.8
U87G A111C | 1.16
G113U C123U | -3.05
C8G G39U | 0.57
G57C U78C | 0.0872
C20A C22U C49A U92A C115U | -7.22
C62U C94U C98G G110U | -6.52
U81A C85U | -2.56
A18U G57A U106A | -5.57
G17A A91C C124A U132A | -0.557
U7G U38G U54C C56U G110A G122U | -3.58
U96C | 0.0976
A5U C8U A46G G60U A66U | -1.11
C49A C73G | -1.88
C70U C82G C104A A111U C115U G127U | -6.19
C3U G48U | -0.574
G35A C72U A75U G77C C97U G120A U125A | -6.29
U14G G52A G93A | -3.09

Reference: the RNAGym collection of RNA variant scans (doi:10.1073/pnas.2313332121)
